# T1: human FcγRIIA-R131 α subunit extracellular domain-His6-GST fusion (human, UniProt P12318 34-217)
# T1 construct: ECD-6His-GST fusion made in 293 cells; also called FcγRIIA-Arg131; not shown: glutathione S transferase (GST)
# T1 sequence: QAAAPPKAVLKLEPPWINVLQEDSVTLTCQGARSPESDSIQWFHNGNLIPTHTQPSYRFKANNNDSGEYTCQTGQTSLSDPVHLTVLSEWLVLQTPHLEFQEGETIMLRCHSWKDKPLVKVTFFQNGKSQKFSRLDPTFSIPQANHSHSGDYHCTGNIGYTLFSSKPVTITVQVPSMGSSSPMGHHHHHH
# B1: anti-IgE E27 IgG1 variant K334(353)A (antibody)
# heavy: not shown
# light: DIQLTQSPSSLSASVGDRVTITCRASKPVDGEGDSYLNWYQQKPGKAPKLLIYAASYLESGVPSRFSGSGSGTDFTLTISSLQPEDFATYYCQQSHEDPYTFGQGTKVEIKRTVAAPSVFIFPPSDEQLKSGTASVVCLLNNFYPREAKVQWKVDNALQSGNSQESVTEQDSKDSTYSLSSTLTLSKADYEKHKVYACEVTHQGLSSPVTKSFNRGEC
# notes: Fc variant of E27; also called IG2 55; G55
# B2: anti-IgE E27 IgG1 variant K334(353)E (antibody)
# heavy: not shown
# light: B1 light
# notes: Fc variant of E27
# B3: anti-IgE E27 IgG1 variant K334(353)H (antibody)
# heavy: not shown
# light: B1 light
# notes: Fc variant of E27
# B4: anti-IgE E27 IgG1 variant K334(353)G (antibody)
# heavy: not shown
# light: B1 light
# notes: Fc variant of E27; also called IG2 179
# B5: anti-IgE E27 IgG1 variant E333(352)Q (antibody)
# heavy: not shown
# light: B1 light
# notes: Fc variant of E27
# B6: anti-IgE E27 IgG1 variant E333(352)S (antibody)
# heavy: not shown
# light: B1 light
# notes: Fc variant of E27; also called IG2 143
# B7: anti-IgE E27 IgG1 variant S298(317)V (antibody)
# heavy: not shown
# light: B1 light
# notes: Fc variant of E27; also called IG2 218
# B8: anti-IgE E27 IgG1 variant R292(309)Q (antibody)
# heavy: not shown
# light: B1 light
# notes: Fc variant of E27; also called IG2 82
# B9: anti-IgE E27 IgG1 variant K290(307)R (antibody)
# heavy: not shown
# light: B1 light
# notes: Fc variant of E27; also called IG2 78
# B10: anti-IgE E27 IgG1 variant E333(352)D (antibody)
# heavy: not shown
# light: B1 light
# notes: Fc variant of E27; also called Glu333Asp
# B11: anti-IgE E27 IgG1 variant E333(352)N (antibody)
# heavy: not shown
# light: B1 light
# notes: Fc variant of E27; also called Glu333Asn
# B12: anti-IgE E27 IgG1 variant K290(307)G (antibody)
# heavy: not shown
# light: B1 light
# notes: Fc variant of E27; also called IG2 177
# B13: anti-IgE E27 IgG1 variant K290(307)Q (antibody)
# heavy: not shown
# light: B1 light
# notes: Fc variant of E27; also called IG2 73
# B14: anti-IgE E27 IgG1 variant E333(352)R (antibody)
# heavy: not shown
# light: B1 light
# notes: Fc variant of E27
# B15: anti-IgE E27 IgG1 variant E333(352)A (antibody)
# heavy: not shown
# light: B1 light
# notes: Fc variant of E27; also called IG2 54; G54
# B16: anti-IgE E27 IgG1 variant K290(307)A (antibody)
# heavy: not shown
# light: B1 light
# notes: Fc variant of E27; also called IG2 30; G30
# B17: anti-IgE E27 IgG1 variant R292(309)K (antibody)
# heavy: not shown
# light: B1 light
# notes: Fc variant of E27; also called IG2 80
# B18: anti-IgE E27 IgG1 variant R292(309)N (antibody)
# heavy: not shown
# light: B1 light
# notes: Fc variant of E27; also called IG2 83
# B19: anti-IgE E27 IgG1 variant K290(307)S (antibody)
# heavy: not shown
# light: B1 light
# notes: Fc variant of E27; also called IG2 75
# B20: anti-IgE E27 IgG1 variant E293(310)Q (antibody)
# heavy: not shown
# light: B1 light
# notes: Fc variant of E27
# B21: anti-IgE E27 IgG1 variant E333(352)K (antibody)
# heavy: not shown
# light: B1 light
# notes: Fc variant of E27
# B22: anti-IgE E27 IgG1 variant K290(307)E (antibody)
# heavy: not shown
# light: B1 light
# notes: Fc variant of E27; also called IG2 77
# B23: anti-IgE E27 IgG1 variant S298(317)A/E333(352)A/K334(353)A (antibody)
# heavy: EVQLVESGGGLVQPGGSLRLSCAVSGYSITSGYSWNWIRQAPGKGLEWVASIKYSGETKYNPSVKGRITISRDDSKNTFYLQMNSLRAEDTAVYYCARGSHYFGHWHFAVWGQGTLVTVSSASTKGPSVFPLAPSSKSTSGGTAALGCLVKDYFPEPVTVSWNSGALTSGVHTFPAVLQSSGLYSLSSVVTVPSSSLGTQTYICNVNHKPSNTKVDKKVEPKSCDKTHTCPPCPAPELLGGPSVFLFPPKPKDTLMISRTPEVTCVVVDVSHEDPEVKFNWYVDGVEVHNAKTKPREEQYNATYRVVSVLTVLHQDWLNGKEYKCKVSNKALPAPIAATISKAKGQPREPQVYTLPPSREEMTKNQVSLTCLVKGFYPSDIAVEWESNGQPENNYKTTPPVLDSDGSFFLYSKLTVDKSRWQQGNVFSCSVMHEALHNHYTQKSLSLSPGK
# light: B1 light
# notes: Fc variant of E27; also called IG2 110; Ser298Ala/Glu333Ala/Lys334Ala
# B24: anti-IgE E27 IgG1 variant D265(278)A (antibody)
# heavy: not shown
# light: B1 light
# notes: Fc variant of E27; also called IG2 14; G14
# B25: anti-IgE E27 IgG1 variant K334(353)D (antibody)
# heavy: not shown
# light: B1 light
# notes: Fc variant of E27; also called IG2 140
# Target: T2, human FcγRIIIA-V158 α subunit extracellular domain-His6-GST fusion (human, UniProt P08637 17-208)
# T2 construct: ECD-6His-GST fusion made in 293 cells; also called FcγRIIIA-Val158; not shown: glutathione S transferase (GST)
# Assay: ELISA, IgG monomer, receptor coated
# T2 sequence (P08637 other isoform, or with tags, fused parts or gaps, form in doubt): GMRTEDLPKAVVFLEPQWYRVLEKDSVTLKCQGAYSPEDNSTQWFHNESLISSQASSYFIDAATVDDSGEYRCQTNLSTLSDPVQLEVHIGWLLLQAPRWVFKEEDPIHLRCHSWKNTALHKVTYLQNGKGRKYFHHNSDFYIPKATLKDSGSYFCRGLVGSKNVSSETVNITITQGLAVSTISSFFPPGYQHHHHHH
row,Binder,"ratio of binding, variant/native IgG1 (mean)"
1,B1,1.6 ratio
2,B2,2.75 ratio
3,B3,2.06 ratio
4,B4,1.28 ratio
5,B5,1 ratio
6,B6,1.07 ratio
7,B7,0.39 ratio
8,B8,0.56 ratio
9,B9,1.24 ratio
10,B10,1.7 ratio
11,B11,0.56 ratio
12,B12,2.29 ratio
13,B13,1.3 ratio
14,B14,0.83 ratio
15,B15,1.29 ratio
16,B16,1.13 ratio
17,B17,1.64 ratio
18,B18,0.91 ratio
19,B19,1.62 ratio
20,B20,0.97 ratio
21,B21,0.81 ratio
22,B22,1.5 ratio

# Target: T1, human FcγRIIA-R131 α subunit …
# Assay: ELISA, IgG complex, receptor coated
row,Binder,"ratio of binding, variant/native IgG1 (mean)"
1,B1,1.01 ratio
2,B2,0.74 ratio
3,B3,1.09 ratio
4,B4,0.76 ratio
5,B5,0.7 ratio
6,B23,0.35 ratio
7,B8,0.47 ratio
8,B9,1.05 ratio
9,B11,0.59 ratio
10,B12,1.07 ratio
11,B13,1.17 ratio
12,B14,0.75 ratio
13,B15,0.92 ratio
14,B16,1.29 ratio
15,B17,0.71 ratio
16,B24,0.07 ratio
17,B18,0.54 ratio
18,B19,1.27 ratio
19,B25,0.51 ratio
20,B20,0.85 ratio
21,B22,1.1 ratio

# Target: T2, human FcγRIIIA-V158 α subunit …
# Assay: ELISA, IgG complex, receptor coated
row,Binder,"ratio of binding, variant/native IgG1 (mean)"
1,B1,1.07 ratio
2,B2,1.17 ratio
3,B3,0.97 ratio
4,B4,0.94 ratio
5,B5,1.05 ratio
6,B23,1.19 ratio
7,B6,0.99 ratio
8,B7,0.88 ratio
9,B9,1.07 ratio
10,B10,1 ratio
11,B11,0.64 ratio
12,B12,1.11 ratio
13,B13,1.02 ratio
14,B14,0.92 ratio
15,B15,1.1 ratio
16,B16,1.12 ratio
17,B24,0.01 ratio
18,B19,1.05 ratio
19,B25,1.07 ratio
20,B20,1 ratio
21,B21,0.88 ratio
22,B22,0.98 ratio

# Target: T3, human FcγRIIIA-F158 α subunit extracellular domain-His6-GST fusion (human, UniProt P08637 17-208)
# T3 construct: ECD-6His-GST fusion made in 293 cells; also called FcγRIIIA-Phe158; not shown: glutathione S transferase (GST)
# Assay: ELISA, IgG complex, receptor coated
# T3 sequence (P08637 other isoform, or with tags, fused parts or gaps, form in doubt): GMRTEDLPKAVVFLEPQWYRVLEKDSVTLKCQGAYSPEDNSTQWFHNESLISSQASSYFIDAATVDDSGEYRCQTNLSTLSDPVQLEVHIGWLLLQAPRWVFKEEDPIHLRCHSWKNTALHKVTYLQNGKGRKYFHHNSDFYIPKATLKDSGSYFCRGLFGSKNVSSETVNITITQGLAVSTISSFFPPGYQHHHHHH
row,Binder,"ratio of binding, variant/native IgG1 (mean)"
1,B1,1.39 ratio
2,B2,1.3 ratio
3,B3,1.26 ratio
4,B4,0.88 ratio
5,B5,1.1 ratio
6,B23,1.66 ratio
7,B6,0.94 ratio
8,B7,0.33 ratio
9,B8,0.45 ratio
10,B9,1.08 ratio
11,B10,1.26 ratio
12,B11,0.56 ratio
13,B12,1.23 ratio
14,B13,1.4 ratio
15,B14,0.84 ratio
16,B15,1.27 ratio
17,B16,1.28 ratio
18,B17,1.15 ratio
19,B24,0.09 ratio
20,B18,0.88 ratio
21,B19,1.26 ratio
22,B25,1.13 ratio
23,B20,0.99 ratio
24,B21,0.85 ratio
25,B22,1.3 ratio

# From patent US7183387 (Genentech, dated 2007)
